This is an account of results in US20100260668A1 (published 2010).

One may read the EC50 as the concentration needed to bring the measured effect to its halfway point.

“And” between values parts separate entries of the source, which are not always exact repeats. Equal values may be shown once.

In assay [1] the target is T1, VEGF (VEGF 1-165 aa, R&D Systems 293-VE-010) (UniProt P15692 27-191).
T1 construct: bought reagent; also called vascular endothelial growth factor
As to the kind of experiment: Direct bind ELISA, VEGF coated on plate; VEGF domain N-term., HC short/LC long. (In an ELISA, binding on a coated surface is turned into a signal by an enzyme label.)

Assay [2] addresses recombinant human VEGF165 (human, UniProt P15692-4 27-191). As to the kind of experiment: cell-based or functional assay.
Assay [3] deals with T2, IGF1 (UniProt P05019 49-118, limits assumed). As to the kind of experiment: cell-based or functional assay.
The target in assay [4] is T3, IGF2 (UniProt P01344 25-91, limits assumed). In words: cell-based or functional assay.
Assay [5] deals with T4, ErbB3 (ErbB3 ECD/FC Chimera-His tag, R&D 348-RB-050) (UniProt P21860 20-643, limits assumed).
T4 construct: extracellular domain; Bought antigen coated on the ELISA plate
As to the kind of experiment: direct bind ELISA, coated antigen; parent reference antibody.

Assay [6] addresses T1, VEGF (VEGF 1-165 aa, R&D Systems …). As to the kind of experiment: Direct bind ELISA, VEGF coated on plate; VEGF domain C-term., HC short/LC long.
Assay [7] has as its target T5, insulin-like growth factor receptor (IGF1R) (human, UniProt P08069 31-1367). In words: cell-based or functional assay.
In assay [8] the target is T5, insulin-like growth factor receptor …. As to the kind of experiment: cell-based or functional assay. The source holds these as a separate data set.
For assay [9] the target is unchanged. As to the kind of experiment: cell-based or functional assay. The source holds these as a separate data set.
For assay [10], the target named is T2, IGF1. As to the kind of experiment: cell-based or functional assay. The source holds these as a separate data set.
In assay [11] the target is T3, IGF2. As to the kind of experiment: cell-based or functional assay. This is another data set of the same source.

T1 sequence (P15692 other isoform, or with tags, fused parts or gaps limits assumed): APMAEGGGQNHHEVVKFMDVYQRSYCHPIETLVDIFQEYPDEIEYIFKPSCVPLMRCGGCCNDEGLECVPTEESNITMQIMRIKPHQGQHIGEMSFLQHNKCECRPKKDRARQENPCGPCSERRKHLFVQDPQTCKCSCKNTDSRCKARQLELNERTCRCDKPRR
Chain of recombinant human VEGF165 (P15692 other isoform, or with tags, fused parts or gaps limits assumed): as above

B1: DVD532 (bispecific antibody, human IgG1, kappa, lambda)
heavy: not shown
light: DIQMTQSPSSLSASVGDRVTITCRASQDVSTAVAWYQQKPGKAPKLLIYSASFLYSGVPSRFSGSGSGTDFTLTISSLQPEDFATYYCQQSYTTPPTFGQGTKVEIKRTVAAPSVFIFPPQAVVTQESALTTSPGETVTLTCRSSTGAVTTSNYANWVQEKPDHLFTGLIGGTNNRAPGVPARFSGSLIGDKAALTITGAQTEDEAIYFCALWYSNHWVFGGGTKLTVLGQPKAAPSVTLFPPSSEELQANKATLVCLISDFYPGAVTVAWKADSSPVKAGVETTTPSKQSNNKYAASSYLSLTPEQWKSHRSYSCQVTHEGSTVEKTVAPTECS
notes: DVD-Ig; N-term; AB070 (VEGF), C-term; AB073 (DLL4); HC linker short, LC linker long; also called DVD-Ig DVD532; DVD532H/DVD532L
For the molecule B1, the EC50 in [1] was 28.9 nM.

B2: DVD041 (bispecific antibody, human IgG1, lambda)
heavy: not shown
light: DIQMTQSPSSLSASVGDRVTITCSASQDISNYLNWYQQKPGKAPKVLIYFTSSLHSGVPSRFSGSGSGTDFTLTISSLQPEDFATYYCQQYSTVPWTFGQGTKVEIKRTVAAPQSVLTQPPSVSAAPGQKVTISCSGSSSNIENNHVSWYQQLPGTAPKLLIYDNNKRPSGIPDRFSGSKSGTSATLGITGLQTGDEADYYCETWDTSLSAGRVFGGGTKLTVLGQPKAAPSVTLFPPSSEELQANKATLVCLISDFYPGAVTVAWKADSSPVKAGVETTTPSKQSNNKYAASSYLSLTPEQWKSHRSYSCQVTHEGSTVEKTVAPTECS
As to B2, the “A431, EGFR line proliferation inhibition IC50” value (in assay [2]; with IGF1 [3]; with IGF2 [4]) was more than 50 nM throughout. Also, the “A431, EGFR line proliferation inhibition, max” value (in assay [2]; with IGF1 [3]; with IGF2 [4]) was 0% in each case.

B3: AB063 (antibody, human IgG1, kappa, V domains shown)
VH: EVQLVESGGGLVQPGGSLRLSCAASGFTFSIYSMNWVRQAPGKGLEWVSYISSSSSTIYYADSVKGRFTISRDNAKNSLYLQMNSLRDEDTAVYYCARDRGDFDAFDIWGQGTMVTVSS
VL: DIQMTQSPSSLSASVGDRVTITCQASQDITNYLNWYQQKPGKAPKLLIYDASNLETGVPSRFSGSGSGTDFTFTISSLQPEDIATYNCQQCENFPITFGQGTRLEIKR
notes: also called AB063VH
On to B3, for which the EC50 in [5] is 0.87 nM and 0.92 nM and 1.1 nM.

B4: DVD507 (bispecific antibody, human IgG1, kappa, L234A L235A)
heavy: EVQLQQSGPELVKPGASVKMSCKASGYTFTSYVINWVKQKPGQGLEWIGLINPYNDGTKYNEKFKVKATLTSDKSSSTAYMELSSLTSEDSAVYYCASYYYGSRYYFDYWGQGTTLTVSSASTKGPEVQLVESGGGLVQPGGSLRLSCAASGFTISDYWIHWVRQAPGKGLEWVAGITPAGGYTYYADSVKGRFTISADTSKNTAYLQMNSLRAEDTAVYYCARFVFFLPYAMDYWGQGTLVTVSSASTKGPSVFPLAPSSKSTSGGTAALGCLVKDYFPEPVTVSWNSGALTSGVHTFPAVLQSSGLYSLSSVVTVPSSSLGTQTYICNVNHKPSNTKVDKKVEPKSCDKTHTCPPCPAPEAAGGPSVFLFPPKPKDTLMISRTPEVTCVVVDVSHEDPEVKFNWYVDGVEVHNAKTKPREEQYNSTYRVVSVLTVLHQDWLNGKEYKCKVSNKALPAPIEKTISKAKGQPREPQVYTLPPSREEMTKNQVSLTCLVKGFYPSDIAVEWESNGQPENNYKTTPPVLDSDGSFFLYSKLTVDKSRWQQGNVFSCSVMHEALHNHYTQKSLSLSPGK
light: DIQMTQSSSYLSVSLGGRVTITCKASDHINNWLAWYQQKPGNAPRLLISGATSLETGVPSRFSGSGSGKDYTLSITSLQTEDVATYYCQQYWSIPLTFGAGTKLELKRTVAAPSVFIFPPDIQMTQSPSSLSASVGDRVTITCRASQDVSTAVAWYQQKPGKAPKLLIYSASFLYSGVPSRFSGSGSGTDFTLTISSLQPEDFATYYCQQSYTTPPTFGQGTKVEIKRTVAAPSVFIFPPSDEQLKSGTASVVCLLNNFYPREAKVQWKVDNALQSGNSQESVTEQDSKDSTYSLSSTLTLSKADYEKHKVYACEVTHQGLSSPVTKSFNRGEC
notes: DVD-Ig; N-term; AB072 (DLL4), C-term; AB070 (VEGF); HC linker short, LC linker long; also called DVD-Ig DVD507; DVD507H/DVD507L
For B4, in assay [6], the EC50 is 34.9 nM.

B5: AB011 (antibody, human IgG1, kappa, V domains shown)
VH: EVQLLESGGGLVQPGGSLRLSCTASGFTFSSYAMNWVRQAPGKGLEWVSAISGSGGTTFYADSVKGRFTISRDNSRTTLYLQMNSLRAEDTAVYYCAKDLGWSDSYYYYYGMDVWGQGTTVTVSS
VL: DIQMTQFPSSLSASVGDRVTITCRASQGIRNDLGWYQQKPGKAPKRLIYAASRLHRGVPSRFSGSGSGTEFTLTISSLQPEDFATYYCLQHNSYPCSFGQGTKLEIKR
With B5, in assay [7], the “H929, IGF1R line proliferation inhibition IC50” value is 0.1 nM and the “H929, IGF1R line proliferation inhibition, max” value worked out at 65 % max. Besides, in [8], the “A431, EGFR line proliferation inhibition IC50” value was more than 67 nM and the “A431, EGFR line proliferation inhibition, max” value was 5 % max. In assay [9], the “GEO, EGFR/IGF1R line proliferation inhibition IC50” value is more than 67 nM and the “GEO, EGFR/IGF1R line proliferation inhibition, max” value came to 15 % max.

B6: DVD508 (bispecific antibody, human IgG1, kappa)
heavy: not shown
light: DIQMTQSPSSLSASVGDRVTITCRASQDVSTAVAWYQQKPGKAPKLLIYSASFLYSGVPSRFSGSGSGTDFTLTISSLQPEDFATYYCQQSYTTPPTFGQGTKVEIKRTVAAPSVFIFPPDIQMTQSSSYLSVSLGGRVTITCKASDHINNWLAWYQQKPGNAPRLLISGATSLETGVPSRFSGSGSGKDYTLSITSLQTEDVATYYCQQYWSIPLTFGAGTKLELKRTVAAPSVFIFPPSDEQLKSGTASVVCLLNNFYPREAKVQWKVDNALQSGNSQESVTEQDSKDSTYSLSSTLTLSKADYEKHKVYACEVTHQGLSSPVTKSFNRGEC
notes: DVD-Ig; N-term; AB070 (VEGF), C-term; AB072 (DLL4); HC linker short, LC linker long; also called DVD-Ig DVD508; DVD508H/DVD508L
As to B6, in assay [1], the response was half-maximal at 7.88 nM (EC50).

B7: AB062 (antibody, human IgG1, kappa, V domains shown)
VH: QVQLQQWGAGLLKPSETLSLTCAVYGGSFSGYYWSWIRQPPGKGLEWIGEINHSGSTNYNPSLKSRVTISVETSKNQFSLKLSSVTAADTAVYYCARDKWTWYFDLWGRGTLVTVSS
VL: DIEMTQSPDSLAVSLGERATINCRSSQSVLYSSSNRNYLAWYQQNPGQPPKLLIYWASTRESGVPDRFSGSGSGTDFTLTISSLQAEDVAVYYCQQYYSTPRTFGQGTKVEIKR
notes: also called AB062VH
As for B7, the EC50 in assay [5] is 0.75 nM and 0.97 nM and 1.6 nM.

B8: AB010 (antibody, human IgG1, lambda, V domains shown)
VH: QVQLVQSGAEVKKPGASVKVSCKASGYTFTSYDINWVRQATGQGLEWMGWMNPNSGNTGYAQKFQGRVTMTRNTSISTAYMELSSLRSEDTAVYYCARDPYYYYYGMDVWGQGTTVTVSS
VL: QSVLTQPPSVSAAPGQKVTISCSGSSSNIENNHVSWYQQLPGTAPKLLIYDNNKRPSGIPDRFSGSKSGTSATLGITGLQTGDEADYYCETWDTSLSAGRVFGGGTKLTVLG
Turning to B8, the “H929, IGF1R line proliferation inhibition IC50” value with IGF1 [10] and in the assay with IGF2 [11] was 1.6 nM each time. The “H929, IGF1R line proliferation inhibition, max” value with IGF1 [10] and with IGF2 [11] was 70 % max throughout. Besides, the “A431, EGFR line proliferation inhibition IC50” value with IGF1 [3] and with IGF2 [4] was more than 67 nM throughout. Moreover, the “A431, EGFR line proliferation inhibition, max” value with IGF1 [3] and with IGF2 [4] was 10 % max in each case.

B9: DVD510 (bispecific antibody, human IgG1, kappa)
heavy: not shown
light: DIQMTQSPSSLSASVGDRVTITCRASQVIRRSLAWYQQKPGKAPKLLIYAASNLASGVPSRFSGSGSGTDFTLTISSLQPEDFATYYCQQSNTSPLTFGQGTKVEIKRTVAAPSVFIFPPDIQMTQSSSYLSVSLGGRVTITCKASDHINNWLAWYQQKPGNAPRLLISGATSLETGVPSRFSGSGSGKDYTLSITSLQTEDVATYYCQQYWSIPLTFGAGTKLELKRTVAAPSVFIFPPSDEQLKSGTASVVCLLNNFYPREAKVQWKVDNALQSGNSQESVTEQDSKDSTYSLSSTLTLSKADYEKHKVYACEVTHQGLSSPVTKSFNRGEC
notes: DVD-Ig; N-term; AB071 (VEGF), C-term; AB072 (DLL4); HC linker short, LC linker long; also called DVD-Ig DVD510; DVD510H/DVD510L
In turn, B9 yielded an EC50 in [1] of 23.9 nM.

B10: AB067 (antibody, human IgG1, lambda, L234A L235A, V domains shown)
VH: EVQLLESGGGLVQPGGSLRLSCAASGFTFSHYVMAWVRQAPGKGLEWVSSISSSGGWTLYADSVKGRFTISRDNSKNTLYLQMNSLRAEDTAVYYCTRGLKMATIFDYWGQGTLVTVSS
VL: QSALTQPASVSGSPGQSITISCTGTSSDVGSYNVVSWYQQHPGKAPKLIIYEVSQRPSGVSNRFSGSKSGNTASLTISGLQTEDEADYYCCSYAGSSIFVIFGGGTKVTVLG
notes: also called AB067VH
For B10, in assay [5], the 50% effective concentration (EC50) is 1.78 nM and 2.2 nM and 1.12 nM.

B11: DVD509 (bispecific antibody, human IgG1, kappa)
heavy: not shown
light: DIQMTQSSSYLSVSLGGRVTITCKASDHINNWLAWYQQKPGNAPRLLISGATSLETGVPSRFSGSGSGKDYTLSITSLQTEDVATYYCQQYWSIPLTFGAGTKLELKRTVAAPSVFIFPPDIQMTQSPSSLSASVGDRVTITCRASQVIRRSLAWYQQKPGKAPKLLIYAASNLASGVPSRFSGSGSGTDFTLTISSLQPEDFATYYCQQSNTSPLTFGQGTKVEIKRTVAAPSVFIFPPSDEQLKSGTASVVCLLNNFYPREAKVQWKVDNALQSGNSQESVTEQDSKDSTYSLSSTLTLSKADYEKHKVYACEVTHQGLSSPVTKSFNRGEC
notes: DVD-Ig; N-term; AB072 (DLL4), C-term; AB071 (VEGF); HC linker short, LC linker long; also called DVD-Ig DVD509; DVD509H/DVD509L
The molecule B11 yielded an EC50 in [6] of 121 nM.
